{"source": "paper PMC10778272", "about": "(2023)", "key": {"[1]": {"target": "T1, GST-Synm-CT (fusion protein of the carboxy-terminus of synemin, amino acids 1464-1565, with GST) (Homo sapiens (Human), UniProt O15061)", "T1 chain": "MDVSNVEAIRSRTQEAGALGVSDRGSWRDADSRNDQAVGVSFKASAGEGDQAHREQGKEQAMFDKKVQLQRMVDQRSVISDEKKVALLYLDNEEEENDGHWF", "test": "Western blot overlay"}, "[2]": {"target": "T2, GST-Synm-CTΔ (carboxy-terminally truncated synemin, amino acids 1464-1533, fused to GST) (Homo sapiens (Human), UniProt O15061)", "T2 chain": "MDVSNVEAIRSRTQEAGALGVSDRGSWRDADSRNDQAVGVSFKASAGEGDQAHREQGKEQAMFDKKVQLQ", "test": "Western blot overlay"}}, "data": [{"binder": "T7-tagged PDZ domain of SYNPO2 (protein) MGTGDFICISMTGGAPWGFRLQGGKEQKQPLQVAKIRNQSKASGSGLCEGDEVVSINGNPCADLTYPEVIKLMESITDSLQMLIKRPSSGISEALISENENKNLEHLTHGGYVESTTLQIRPATKTQCTEFFLAPVKTEVPLAENQRSGPDCAGSLKEETGPSYQRAPQMPDSQRGRVAE", "values": [{"measurement": "binding result", "setting": "[1]", "value": "binds"}, {"measurement": "binding result", "setting": "[2]", "value": "no binding"}]}]}
